Reference: patent US20200283528A1
Positions count from the first letter of the chain named.

B1: PRO1430 (scDb-scFv: 37-20-B03 sc01 / 38-02-A04 sc013 / 19-01-H04 sc03) (protein, from a related filing)
chain: DIQMTQSPSSLSASVGDRVTITCQASQSIGTYLAWYQQKPGKAPKLLIYRAFILASGVPSRFSGSGSGTDFTLTISSLQPEDFATYYCQSNFYSDSTTIGPNAFGTGTKVTVLGGGGGSEVQLVESGGGLVQPGGSLRLSCAASGFSFSNSYWICWVRQAPGKCLEWIGCTFVGSSDSTYYANWAKGRFTISRDNSKNTVYLQMNSLRAEDTAVYYCARHPSDAVYGYANNLWGQGTLVTVSSGGGGSGGGGSGGGGSGGGGSIQMTQSPSSLSASVGDRVTITCQASQSINNVLAWYQQKPGKAPKLLIYRASTLASGVPSRFSGSGSGTDFTLTISSLQPEDFATYYCQSSYGNYGDFGCGTKVTVLGGGGGSQVQLQESGPGLVKPSETLSLTCKVSGFSFNSDYWIYWIRQPPGKGLEWIGSIYGGSSGNTQYASWAQGRVTISVDSSKNQFSLKLSSVTAADTAVYYCARGYVDYGGATDLWGQGTLVTVSSGGGGSGGGGSIQMTQSPSSLSASVGDRVTITCQSSESVYSNNQLSWYQQKPGQPPKLLIYDASDLASGVPSRFSGSGSGTDFTLTISSLQPEDFATYYCAGGFSSSSDTAFGGGTKLTVLGGGGGSGGGGSGGGGSGGGGSEVQLVESGGGLVQPGGSLRLSCAASGFSLSSNAMGWVRQAPGKGLEYIGIISVGGFTYYASWAKGRFTISRDNSKNTVYLQMNSLRAEDTATYFCARDRHGGDSSGAFYLWGQGTLVTVSS
B2: PRO1482 (scDb-scFv: 37-20-B03 sc09.1 / 38-02-A04 sc013 / 19-01-H04 sc03) (protein, from a related filing)
chain: DIQMTQSPSSLSASVGDRVTITCQASQSINNVLAWYQQKPGKAPKLLIYRASTLASGVPSRFSGSGSGTDFTLTISSLQPEDFATYYCQSSYGNYGDFGCGTKVTVLGGGGGSEVQLVESGGGLVQPGGSLRLSCAASGFSFNSDYWIYWVRQAPGKGLEWIASIYGGSSGNTQYASWAQGRFTISRDNSKNTVYLQMNSLRAEDTAVYFCARGYVDYGGATDLWGQGTLVTVSSGGGGSGGGGSGGGGSGGGGSIQMTQSPASLSASVGDRVTITCQASQSIGTYLAWYQQKPGKPPKLLIYRAFILASGVPSRFSGSGSGTDFTLTISSLQPEDFATYYCQSNFYSDSTTIGPNAFGTGTKVTVLGGGGGSEVQLVESGGGLVQPGGSLRLSCAASGFSFSNSYWICWVRQAPGKCLEWIGCTFVGSSDSTYYANWAKGRFTISRDNSKNTVYLQMNSLRAEDTAVYYCARHPSDAVYGYANNLWGQGTLVTVSSGGGGSGGGGSIQMTQSPSSLSASVGDRVTITCQSSESVYSNNQLSWYQQKPGQPPKLLIYDASDLASGVPSRFSGSGSGTDFTLTISSLQPEDFATYYCAGGFSSSSDTAFGGGTKLTVLGGGGGSGGGGSGGGGSGGGGSEVQLVESGGGLVQPGGSLRLSCAASGFSLSSNAMGWVRQAPGKGLEYIGIISVGGFTYYASWAKGRFTISRDNSKNTVYLQMNSLRAEDTATYFCARDRHGGDSSGAFYLWGQGTLVTVSS
B3: PRO1476 (scDb-scFv: 33-03-G02 sc03 / 38-02-A04 sc013 / 19-01-H04 sc03) (protein, from a related filing)
chain: DIQMTQSPSSLSASVGDRVTITCQASQSINNVLAWYQQKPGKAPKLLIYRASTLASGVPSRFSGSGSGTDFTLTISSLQPEDFATYYCQSSYGNYGDFGCGTKVTVLGGGGGSQSQLQESGPGLVKPSETLSLTCKASGFSFSSGYDMCWVRQPPGKGLEWIACVVAGSVDITYYASWAKGRVTISKDSSKNQVSLKLSSVTAADTAVYFCARKDAYSDAFNLWGQGTLVTVSSGGGGSGGGGSGGGGSGGGGSFQLTQSPSSLSASVGDRVTITCQASQSINDYLAWYQQKPGKSPKLLIYKASTLASGVPSRFSGSGSGTDFTLTISSLQPEDFATYYCQQGYIITDIDNVFGTGTKVTVLGGGGGSEVQLVESGGGLVQPGGSLRLSCAASGFSFSNSYWICWVRQAPGKCLEWIGCTFVGSSDSTYYANWAKGRFTISRDNSKNTVYLQMNSLRAEDTAVYYCARHPSDAVYGYANNLWGQGTLVTVSSGGGGSGGGGSIQMTQSPSSLSASVGDRVTITCQSSESVYSNNQLSWYQQKPGQPPKLLIYDASDLASGVPSRFSGSGSGTDFTLTISSLQPEDFATYYCAGGFSSSSDTAFGGGTKLTVLGGGGGSGGGGSGGGGSGGGGSEVQLVESGGGLVQPGGSLRLSCAASGFSLSSNAMGWVRQAPGKGLEYIGIISVGGFTYYASWAKGRFTISRDNSKNTVYLQMNSLRAEDTATYFCARDRHGGDSSGAFYLWGQGTLVTVSS
B4: PRO1432 (scDb-scFv: 33-03-G02 sc18 / 38-02-A04 sc013 / 19-01-H04 sc03) (protein, from a related filing)
chain: B3 chain with S115V, F210Y, F255I, L257M, S296A
B5: PRO1431 (scDb-scFv: 33-03-G02 sc18 / 38-02-A04 sc013 / 19-01-H04 sc03) (protein, from a related filing)
chain: DIQMTQSPSSLSASVGDRVTITCQASQSINDYLAWYQQKPGKAPKLLIYKASTLASGVPSRFSGSGSGTDFTLTISSLQPEDFATYYCQQGYIITDIDNVFGTGTKVTVLGGGGGSEVQLVESGGGLVQPGGSLRLSCAASGFSFSNSYWICWVRQAPGKCLEWIGCTFVGSSDSTYYANWAKGRFTISRDNSKNTVYLQMNSLRAEDTAVYYCARHPSDAVYGYANNLWGQGTLVTVSSGGGGSGGGGSGGGGSGGGGSIQMTQSPSSLSASVGDRVTITCQASQSINNVLAWYQQKPGKAPKLLIYRASTLASGVPSRFSGSGSGTDFTLTISSLQPEDFATYYCQSSYGNYGDFGCGTKVTVLGGGGGSQVQLQESGPGLVKPSETLSLTCKASGFSFSSGYDMCWVRQPPGKGLEWIACVVAGSVDITYYASWAKGRVTISKDSSKNQVSLKLSSVTAADTAVYYCARKDAYSDAFNLWGQGTLVTVSSGGGGSGGGGSIQMTQSPSSLSASVGDRVTITCQSSESVYSNNQLSWYQQKPGQPPKLLIYDASDLASGVPSRFSGSGSGTDFTLTISSLQPEDFATYYCAGGFSSSSDTAFGGGTKLTVLGGGGGSGGGGSGGGGSGGGGSEVQLVESGGGLVQPGGSLRLSCAASGFSLSSNAMGWVRQAPGKGLEYIGIISVGGFTYYASWAKGRFTISRDNSKNTVYLQMNSLRAEDTATYFCARDRHGGDSSGAFYLWGQGTLVTVSS
B6: PRO1473 (scDb-scFv: 33-03-G02 sc03 / 38-02-A04 sc013 / 19-01-H04 sc03) (protein, from a related filing)
chain: B5 chain with I2F, M4L, A43S, V374S, Y469F
B7: PRO1479 (scDb-scFv: 37-20-B03 sc09.1 / 38-02-A04 sc013 / 19-01-H04 sc03) (protein, from a related filing)
chain: DIQMTQSPASLSASVGDRVTITCQASQSIGTYLAWYQQKPGKPPKLLIYRAFILASGVPSRFSGSGSGTDFTLTISSLQPEDFATYYCQSNFYSDSTTIGPNAFGTGTKVTVLGGGGGSEVQLVESGGGLVQPGGSLRLSCAASGFSFSNSYWICWVRQAPGKCLEWIGCTFVGSSDSTYYANWAKGRFTISRDNSKNTVYLQMNSLRAEDTAVYYCARHPSDAVYGYANNLWGQGTLVTVSSGGGGSGGGGSGGGGSGGGGSIQMTQSPSSLSASVGDRVTITCQASQSINNVLAWYQQKPGKAPKLLIYRASTLASGVPSRFSGSGSGTDFTLTISSLQPEDFATYYCQSSYGNYGDFGCGTKVTVLGGGGGSEVQLVESGGGLVQPGGSLRLSCAASGFSFNSDYWIYWVRQAPGKGLEWIASIYGGSSGNTQYASWAQGRFTISRDNSKNTVYLQMNSLRAEDTAVYFCARGYVDYGGATDLWGQGTLVTVSSGGGGSGGGGSIQMTQSPSSLSASVGDRVTITCQSSESVYSNNQLSWYQQKPGQPPKLLIYDASDLASGVPSRFSGSGSGTDFTLTISSLQPEDFATYYCAGGFSSSSDTAFGGGTKLTVLGGGGGSGGGGSGGGGSGGGGSEVQLVESGGGLVQPGGSLRLSCAASGFSLSSNAMGWVRQAPGKGLEYIGIISVGGFTYYASWAKGRFTISRDNSKNTVYLQMNSLRAEDTATYFCARDRHGGDSSGAFYLWGQGTLVTVSS

Molecular target: human PDL1 expressed on cells (human) (UniProt Q9NZQ7)
Experiment: cell-based or functional assay

Row | NF-AT potency assay IC50 (with HSA) | NF-AT potency assay rel. IC50 (IC50, Avelumab/IC50, test molecule) (with HSA) | Binder
1 | 16.2 ng/mL | 1.45 | B1
2 | 54.8 ng/mL | 0.68 | B2
3 | 53.5 ng/mL | 0.66 | B3
4 | 18.5 ng/mL | 1.98 | B4
5 | 9.83 ng/mL | 3.73 | B5
6 | 35.2 ng/mL | 1.11 | B6
7 | 50.4 ng/mL | 1.04 | B7

Molecular target: Fc tagged human PDL1 (human) (UniProt Q9NZQ7)
Experiment: SPR Biacore T200; PDL1-Fc captured; molecule 0.12-90 nM

Row | Kd | koff | kon | Binder
8 | 0.0045 nM | 2.4e-05 s⁻¹ | 5.3e+06 M⁻¹ s⁻¹ | B1
9 | 0.0098 nM | 3.3e-05 s⁻¹ | 3.4e+06 M⁻¹ s⁻¹ | B2
10 | 0.009 nM | 3.1e-05 s⁻¹ | 3.4e+06 M⁻¹ s⁻¹ | B3
11 | 0.011 nM | 4.4e-05 s⁻¹ | 4.2e+06 M⁻¹ s⁻¹ | B4
12 | 0.014 nM | 4.5e-05 s⁻¹ | 3.3e+06 M⁻¹ s⁻¹ | B5
13 | 0.0082 nM | 2.9e-05 s⁻¹ | 3.6e+06 M⁻¹ s⁻¹ | B6
14 | 0.0092 nM | 3.9e-05 s⁻¹ | 4.2e+06 M⁻¹ s⁻¹ | B7

Molecular target: human CD137-Fc chimeric protein (human) (UniProt Q07011)
Experiment: SPR Biacore T200; CD137-Fc captured; molecule as analyte

Row | Kd | koff | kon | Binder
15 | 1.5 nM | 0.00071 s⁻¹ | 460000 M⁻¹ s⁻¹ | B1
16 | 1.1 nM | 0.00036 s⁻¹ | 320000 M⁻¹ s⁻¹ | B2
17 | 1.1 nM | 0.00037 s⁻¹ | 350000 M⁻¹ s⁻¹ | B3
18 | 0.75 nM | 0.00045 s⁻¹ | 600000 M⁻¹ s⁻¹ | B4
19 | 1.7 nM | 0.00075 s⁻¹ | 450000 M⁻¹ s⁻¹ | B5
20 | 2 nM | 0.0006 s⁻¹ | 310000 M⁻¹ s⁻¹ | B6
21 | 1.7 nM | 0.00054 s⁻¹ | 330000 M⁻¹ s⁻¹ | B7

Molecular target: human PDL1 (recombinant, soluble) (human) (UniProt Q9NZQ7)
Experiment: PDL1/PD-1 competition ELISA; PD-1 coated, biotinylated PDL1 1 ng/ml

Row | IC50 | rel. IC50 (IC50, Avelumab/IC50, test molecule) | Binder
22 | 1.92 ng/mL | 0.73 | B1
23 | 1.78 ng/mL | 1.24 | B2
24 | 2.84 ng/mL | 0.8 | B3
25 | 3.26 ng/mL | 0.43 | B4
26 | 2.75 ng/mL | 0.51 | B5
27 | 4.14 ng/mL | 0.56 | B6
28 | 2.65 ng/mL | 0.86 | B7

Molecular target: human PDL1 (recombinant, soluble) (human) (UniProt Q9NZQ7)
Experiment: PDL1/B7-1 competition ELISA; B7-1 coated, biotinylated PDL1 40 ng/ml

Row | IC50 | rel. IC50 (IC50, Avelumab/IC50, test molecule) | Binder
29 | 2.42 ng/mL | 1.15 | B1
30 | 8.18 ng/mL | 1.51 | B2
31 | 9.49 ng/mL | 1.1 | B3
32 | 2.83 ng/mL | 0.99 | B4
33 | 3.31 ng/mL | 0.84 | B5
34 | 8.89 ng/mL | 1.49 | B6
35 | 10.7 ng/mL | 1.38 | B7
